Source: the nanobody polyreactivity screen of Harvey et al. (2022)

Experiment: yeast display, Sf9 membrane polyspecificity reagent, FACS + sequencing; frameworks hold sequencing errors
Method in brief: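 Synthetic nanobody libraries on Saccharomyces cerevisiae BJ5465 were galactose-induced for 36–48 hours, stained 1 hour at 4 °C with 10% biotinylated, detergent-solubilized Sf9 membrane reagent and enriched on streptavidin microbeads. FACS then separated cells into low and high (top ~1%) gates by anti-HA (expression) and streptavidin (reagent binding) fluorescence. Genes were colony-PCR amplified, MiSeq 2 × 250 sequenced and CDR-length filtered. A clone's polyreactivity label is that of its gate of origin.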

Row | Sequence | polyreactivity (PSR sort gate)
1 | QVQLVESGGGLVQAGGSLRLSCAASGSIFFYAMGWYRQAPGKERELVADITYTGGSKYADSVKGRFSISRDNAKNTVYLQMNSLKTEDTAVYYCAKLDGGLFDYWGQGTQVTVSS | low polyreactivity
2 | QVQLVESGAGLVQAGGSLRISCAASGRIFAQYAMGWYRQAPGKERELVAAITTTGRTYYADSVKGRFTISRDNAKNTVYLQMNSTKPEETAVYYCAVGYHAPKVSTSDPRYDYWGQGTQVTVSS | low polyreactivity
3 | QVQLVESGGGLVQAGGSLRLSCAASGSIFDPYAMGGYRQAPGKERELVAAISFITGGTYYADSVMGRFTISRDNAMNTVYLQMNSLKPEDTAVYYCNADYFYKGGWVWRDEYWGQGTQVTVSS | high polyreactivity
4 | QVQLVESGGGLVQAGGSLRLSCAASGFILDWYTMGWYRHAPGKEREFVAAITSRGGDTYYADSVKGRFTISRDNAKNTVYLQMNSLTPEDTAVYYCNKGFKLWPRYGYDYWGQGTQVTVSS | low polyreactivity
5 | QVQLVESGGGLVQAGGSLRLSCAASGSIFITYAMGWYRQPPGKERELVATITSRSGGTYYADSVKGRFTISRDNAQNTVYLQMNSLKPEDTAVYYCNAVYTYPVFHGMGYWGQGTQVTVSS | high polyreactivity
6 | QVQLVESGGGLVQAGGSLRLSCAASGRIFGWYAMGWYRQAPGKERELVAAISYSGGSTYADSVKGRFTISRDNAKYTVYLQMNSLKPEDTAVYYCAAYSSYYVHRFQHYDYWGQGTQVTVSS | high polyreactivity
7 | QVQLVDSGGGLVQAGGSLRLSSAASGRTFRYYTMGWYRQAPGKERELVAGISRSGANTYYADSVKGRFTISRDNAKNSVYLQMNSLKPEDTAVYYCNAVYGTYDWGQGTQVTVSS | high polyreactivity
8 | QVQLVESGGGLVQAGGSLRLSCAASGRIFEYYAMGWYRQAPGKERELVAAINTGGNTYYADSVKGRFTISRDNAKNTVYLLMNSLKPEDTAVYYCATYPIWYGGYLSGTDYDYWGQGTQVTVSS | low polyreactivity
9 | QVQLVESGGGLVQAGGSLRLSCAASGSTFIGSDMGWYRQAPGKERELVAAISYSDGTYYADSVKGRFTISRDNAKNTVYLQMNSLKPEDTAVYYCATSYRDIGSHVGYWGQGTQVTVSS | low polyreactivity
10 | QVQLVESGGGLVQAGGSLRLSCAASGRIFSNNAMGWYRQAPGKERELVATITGSGGRTYYADSVKGRFTISRDIAKNSVYLQMNSLKPEDTAVYYCNADLYSYYWRVRYGLDYWGQGTQVTVSS | high polyreactivity
11 | QVQLVESGGGLVQAGGSLRLSCAASGLTFPFYTMGRYRRAPGKERELVAAISRRGGSTYYADSVKGRFTISRDNAKNTVYLQMNSLKPEDTAVYYCAADKYSWYDYWGQGTQVTVSS | low polyreactivity
12 | QDQLVESGGGLVQAGGSLRISCGASGRIFDIYAMGWYRQAPGKERELVADITSGGSTYYADSVQGRFTISRVNAKNTVYLQMNSLKPEDTAVYYCAARLFADYWGQGTHVTVSS | low polyreactivity
13 | QVQLVESGGGLVQAGGSLRLSCAASGSIFQYNAMGWYRQAPGKESELVAVISWSGDTYYADSVKGRFTISRDNAKNTVYLQMNSLKPEDTAVYYCATDVLAWAPNDYWGQGTQVTVSS | low polyreactivity
14 | QVQLVESGGGLVHAGGSLRLSCAASGSIFSAYAMGWYRQAPGKERELVAAISRSGGRTYYADSVKGRFTISRDNAKNTVYLQMNSLKPEDTAVYYCAAYFTYYSTLGRWYRYDYWGQGTQVTVSS | high polyreactivity
15 | QVQLVESGGGLVQAGGSLRLSCAASGSTFRQNAMGWYRQAPGKERELVAAITYRVASTYYADSVKGRFTISRDNAKNTVYLQMNSLKPEDTAVYYCAARFGSGFNYWGQGTQVTVSS | high polyreactivity
16 | QVQLVESGGGLVQAGGRLRLSCAASGGTFVPYAMGWYRQAPGTERELVARISKRGGTTYYADSVKGRFTISRDTAKNTVYLQMNSVKPEDTAVYYCGAVLPARGYYWGEGTQVTVSS | high polyreactivity
17 | QVQLVESGGGLVQAGGSLRLSCAASGRIFDIYAMGWYRQAPGKERELVAAIDESGGSTYYADSVKGRFTISRDNAKNTVYLQMNSLKPEDTAVYYCATVDTWTISYGWYCFTYEYWGQCTQVTVSS | low polyreactivity
